# B1: mouse NLGN3 ECD (residues 35–684) with C-terminal His6 tag (domain or fragment, UniProt Q8BYM5 35-684, looked up)
# chain: QAPAPTVNTHFGKLRGARVPLPSEILGPVDQYLGVPYAAPPIGEKRFLPPEPPPSWSGIRNATHFPPVCPQNIHTAVPEVMLPVWFTANLDIVATYIQEPNEDCLYLNVYVPTEDGSGAKKQGEDLADNDGDEDEDIRDSGAKPVMVYIHGGSYMEGTGNMIDGSVLASYGNVIVITLNYRVGVLGFLSTGDQAAKGNYGLLDQIQALRWVSENIAFFGGDPRRITVFGSGIGASCVSLLTLSHHSEGLFQRAIIQSGSALSSWAVNYQPVKYTSLLADKVGCNVLDTVDMVDCLRQKSAKELVEQDIQPARYHVAFGPVIDGDVIPDDPEILMEQGEFLNYDIMLGVNQGEGLKFVEGVVDPEDGVSGTDFDYSVSNFVDNLYGYPEGKDTLRETIKFMYTDWADRDNPETRRKTLVALFTDHQWVEPSVVTADLHARYGSPTYFYAFYHHCQSLMKPAWSDAAHGDEVPYVFGVPMVGPTDLFPCNFSKNDVMLSAVVMTYWTNFAKTGDPNKPVPQDTKFIHTKANRFEEVAWSKYNPRDQLYLHIGLKPRVRDHYRATKVAFWKHLVPHLYNLHDMFHYTSTTTKVPPPDTTHSSHITRRPNGKTWSTKRPAISPAYSNENAPGSWNGDQDAGPLLVENPRDYSTE
# notes: mouse neuroligin 3, NLGN3A isoform, extracellular domain; Dimer by SEC-MALS and in both crystals; also called apo-NLGN3 ECD; wild-type NLGN3; not shown: His6, C-terminal, kept
# Columns and labels:
# [1] = biological target: B1; test: ITC; NLGN3 ECD (20 µM) in the cell, NRXN1β (200 µM) injected; 20 mM Tris-HCl pH 8.0, 150 mM NaCl, 1 mM CaCl2, 25 °C; one-site model; conditions: both partners purified
# [2] = biological target: T1, NLGN3 ECD MF/IS mutant (M614I F615S) with His6 tag (mouse, UniProt Q8BYM5 35-684, M614I | F615S); test: as above; conditions: both partners purified
# T1 construct: mouse neuroligin 3, NLGN3A isoform, extracellular domain (gene for residues 1–684 expressed and secreted), mutated; also called NLGN3-MF/IS; not shown: His6, C-terminal, kept
# [3] = biological target: the molecule itself; test: SEC-MALS; NLGN3 ECD wild-type at 1.5 g/L or R/C mutant at 1.1 g/L on ENrich SEC 650, 20 mM Tris-HCl pH 7.5, 150 mM NaCl
Binder,Kd [1],Kd [2],stoichiometry N [3]
NRXN1β (lacking SS4) used for ITC (domain or fragment) not shown,1.8 µM,2.3 µM,–
B1,–,–,2

# Source: publication PMC7988105, “Canonical versus non-canonical transsynaptic signaling of neuroligin 3 tunes development of sociality in mice” (Nature Communications, 2021)
